Results: US20080167229
Numbering of substitutions follows the chain as printed. Read-outs that look alike come from different tables or passages of the source.

B1: N-terminal cleavage product of c-Myc-tagged USP1 (rabbit reticulocyte lysate) (protein)
chain: MPGVIPSESNGLSRGSPSKKNRLSLKFFQKKETKRALDFTDSQENEEKASEYRASEIDQVVPAAQSSPINCEKRENLLPFVGLNNLGNTCYLNSILQVLYFCPGFKSGVKHLFNIISRKKEALKDEANQKDKGNCKEDSLASYELICSLQSLIISVEQLQASFLLNPEKYTDELATQPRRLLNTLRELNPMYEGYLQHDAQEVLQCILGNIQETCQLLKKEEVKNVAELPTKVEEIPHPKEEMNGINSIEMDSMRHSEDFKEKLPKGNGKRKSDTEFGNMKKKVKLSKEHQSLEENQRQTRSKRKATSDTLESPPKIIPKYISENESPRPSQKKSRVKINWLKSATKQPSILSKFCSLGKITTNQGVKGQSKENECDPEEDLGKCESDNTTNGCGLESPGNTVTPVNVNEVKPINKGEEQIGFELVEKLFQGQLVLRTRCLECESLTERREDFQDISVPVQEDELSKVEESSEISPEPKTEMKTLRWAISQFASVERIVGEDKYFCENCHHYTEAERSLLFDKMPEVITIHLKCFAASGLEFDCYGGGLSKINTPLLTPLKLSLEEWSTKPTNDSYGLFAVVMHSGITISSGHYTASVKVTDLNSLELDKGNFVVDQMCEIGKPEPLNEEEARGVVENYNDEEVSIRVGGNTQPSKVLNKKNVEAIGLLGG
B2: c-Myc-tagged USP1 synthesized in rabbit reticulocyte lysate (protein)
chain: MPGVIPSESNGLSRGSPSKKNRLSLKFFQKKETKRALDFTDSQENEEKASEYRASEIDQVVPAAQSSPINCEKRENLLPFVGLNNLGNTCYLNSILQVLYFCPGFKSGVKHLFNIISRKKEALKDEANQKDKGNCKEDSLASYELICSLQSLIISVEQLQASFLLNPEKYTDELATQPRRLLNTLRELNPMYEGYLQHDAQEVLQCILGNIQETCQLLKKEEVKNVAELPTKVEEIPHPKEEMNGINSIEMDSMRHSEDFKEKLPKGNGKRKSDTEFGNMKKKVKLSKEHQSLEENQRQTRSKRKATSDTLESPPKIIPKYISENESPRPSQKKSRVKINWLKSATKQPSILSKFCSLGKITTNQGVKGQSKENECDPEEDLGKCESDNTTNGCGLESPGNTVTPVNVNEVKPINKGEEQIGFELVEKLFQGQLVLRTRCLECESLTERREDFQDISVPVQEDELSKVEESSEISPEPKTEMKTLRWAISQFASVERIVGEDKYFCENCHHYTEAERSLLFDKMPEVITIHLKCFAASGLEFDCYGGGLSKINTPLLTPLKLSLEEWSTKPTNDSYGLFAVVMHSGITISSGHYTASVKVTDLNSLELDKGNFVVDQMCEIGKPEPLNEEEARGVVENYNDEEVSIRVGGNTQPSKVLNKKNVEAIGLLGGQKSKADYELYNKASNPDKVASTAFAENRNSETSDTTGTHESDRNKESSDQTGINISGFENKISYVVQSLKEYEGKWLLFDDSEVKVTEEKDFLNSLSPSTSPTSTPYLLFYKKL
B3: USP1/UAF1 complex (heterodimer) co-expressed in and purified from Sf9 cells, Example 1 (protein)
chain 1: B2 chain with G670A, G671A
chain 2: not shown
B4: USP1 with N-terminal His tag, amino acids 670-71 changed from GG to AA (non-cleavable), purified from Sf9 cells (protein)
chain: B2 chain with G670A, G671A
B5: native USP1 complex purified from HeLa nuclear extract (protein)
chain 1: B2 chain
chain 2: not shown

Key:
[1] = target: Flag-HA-tagged UAF1, expressed in and purified from HeLa cells
[2] = target: Ubiquitin-Vinyl Sulfone (U-202; Boston Biochem)
[3] = target: T1, Ubiquitin-7-amido-4-methylcoumarin (U-550; Boston Biochem)
[4] = target: monoubiquitinated Flag-HA-tagged FANCD2 protein purified from hydroxyurea-treated HeLa cells, Q9BXW9
[5] = target: T1, Ubiquitin-7-amido-4-methylcoumarin …; assay: Ub-AMC hydrolysis at 2 nM USP1/UAF1 complex, Lineweaver-Burk plot; standard deviation in brackets
[6] = target: T1, Ubiquitin-7-amido-4-methylcoumarin …; assay: Ub-AMC hydrolysis at 20 nM USP1, Lineweaver-Burk plot; standard deviation in brackets
[7] = target: Strep-tagged UAF1-ΔWD2 purified from Sf9 insect cells
[8] = target: UAF1 with engineered C-terminal Strep II tag, purified from Sf9 cells

Protein | mobility shift in SDS-PAGE with Ub-VS [2] | Km [3] | Ub-AMC cleavage, fluorescence against time, 10 nM protein [3] | kcat [3] | in vitro deubiquitination of Ub-FANCD2 [4] | other results
B1 | there was a shift of both the full length USP1 and the N-terminal cleavage product in the presence of Ub-VS |  |  |  |  | amount of the N-terminal cleavage product of c-Myc-USP1 after cycloheximide in reticulocyte lysate (anti-c-Myc immunoblot) [1]: the e-USP1-N-Term. band (about 97 kDa) stays faint from 0 min to 2h in Control and grows stronger from 0 min to 2h with + UAF1
B2 | there was a shift of both the full length USP1 and the N-terminal cleavage product in the presence of Ub-VS |  |  |  |  | 
B3 |  | decreasing the Km from 1.4 µM to 0.7 µM | rises steeply from about 350 at 0 min to a plateau of about 2000 reached at about 15 min | 0.26 s⁻¹ | the UAF11USP1 complex readily deubiquitinated the substrate; about half of the substrate was deubiquitinated | rate of Ub-AMC conversion V (nM/s) against [S] (µM), 2 nM USP1/UAF1 complex [3]: V rises from about 0.19 nM/s at about 0.4 µM to about 0.43 nM/s at 3 µM; the fitted curve flattens but still rises, no plateau; Km [5]: 0.7 µM
B4 |  | decreasing the Km from 1.4 µM to 0.7 µM | rises slowly and almost linearly from about 130 at 0 min to about 400 at 40 min | 0.014 s⁻¹ | USP1 protein alone was unable to deubiquitinate Ub-FANCD2 | Km [6]: 1.4 µM; Ub-AMC cleavage, fluorescence against time, 10 nM USP1 alone [3]: slow rise from about 120 at 0 min to about 300 at about 23 min, on one line with USP1 + UAF1-ΔWD2; rate of Ub-AMC conversion V (nM/s) against [S] (µM), 20 nM USP1 [3]: V rises from about 0.09 nM/s at 0.6 µM to about 0.2 nM/s at 3 µM; the fitted curve still rises, no plateau; Ub-AMC cleavage by 10 nM USP1, fluorescence against time, 10 nM UAF1-ΔWD2 added during the run [7]: no stimulation: the two dark traces (USP1 and USP1 + UAF1-ΔWD2) lie on one another, step to about 240 at about 12 min and keep their slope, reaching about 300 at about 23 min; Ub-AMC cleavage by 2 nM USP1, fluorescence against time, 2 nM UAF1 or buffer added during the run [8]: both traces run together from about 130 to about 165 until about 12 min; then + UAF1 steps to about 245 and rises at once in a straight line beyond 500 at about 23 min, while Control steps to about 185 and reaches only about 215 at 25 min; Ub-AMC cleavage by 10 nM USP1, fluorescence against time, 10 nM UAF1 added during the run [8]: the grey trace USP1 + UAF1 runs with the USP1 traces from about 120 to about 200 until about 12 min, then steps to about 310 and rises in a straight line to about 1200 at about 23 min; kcat on Ub-AMC, UAF1/USP1 complex against USP1 alone [8]: augmenting the kcat value 18-fold; kcat/Km on Ub-AMC, UAF1/USP1 complex against USP1 alone [8]: the kcat/Km is 35-fold higher for the UAF1/USP1 complex compared to USP1 alone; substrate turnover of Ubiquitin-AMC after adding UAF1 in an equimolar amount to USP1 [8]: Addition of UAF1 resulted in an instantaneous and robust increase of substrate turnover
B5 | a mobility shift of both full length and the N-terminal cleavage product of USP1 was observed, demonstrating enzymatic activity of both polypeptides |  |  |  | the USP1 complex could support this reaction | 
